Measurements from article PMC10848707.
Several values for one entry are separate records, joined by “and”; a condition that tells them apart may be missing. Equal values may be shown once.

Target: T1, recombinant influenza A virus nucleoprotein (A/WSN/1933) (influenza A virus (A/WSN/1933)), P15682
T1 chain: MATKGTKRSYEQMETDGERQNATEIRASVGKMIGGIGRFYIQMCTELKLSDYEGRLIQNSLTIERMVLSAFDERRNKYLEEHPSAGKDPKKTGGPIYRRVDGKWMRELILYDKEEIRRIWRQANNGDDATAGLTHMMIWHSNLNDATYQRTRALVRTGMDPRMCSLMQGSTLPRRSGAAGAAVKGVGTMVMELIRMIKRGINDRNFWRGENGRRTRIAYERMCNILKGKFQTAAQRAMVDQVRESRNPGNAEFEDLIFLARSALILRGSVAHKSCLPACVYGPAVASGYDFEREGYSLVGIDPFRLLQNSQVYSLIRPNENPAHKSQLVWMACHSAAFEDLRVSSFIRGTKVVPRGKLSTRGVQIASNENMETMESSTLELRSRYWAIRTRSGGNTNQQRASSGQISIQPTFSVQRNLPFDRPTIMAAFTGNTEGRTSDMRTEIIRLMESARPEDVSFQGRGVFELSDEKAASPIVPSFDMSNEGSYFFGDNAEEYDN
Experiment: negative staining EM; freshly assembled RNP-like mixture (NP with 12-nt RNA) diluted to 0.05 mg/ml, 2% sodium silicotungstate pH 7.0
Conditions: remark: other sources report otherwise

B1: recombinant influenza A virus nucleoprotein (A/WSN/1933), P15682 (natural protein)
chain: T1 chain
In the case of B1, the stoichiometry N is reported as 3 and 4.
